Columns and labels:
[1] = target: T1, myotoxin II from Bothrops asper (Bothrops asper, UniProt P24605 17-137, biotin (EZ-Link NHS-PEG4-Biotin, molar ratio 1:1.5 toxin:biotin)); assay: BLI
[2] = target: T1, myotoxin II from Bothrops asper; assay: BLI; remark: listed apart in the source

T1 sequence (P24605 17-137): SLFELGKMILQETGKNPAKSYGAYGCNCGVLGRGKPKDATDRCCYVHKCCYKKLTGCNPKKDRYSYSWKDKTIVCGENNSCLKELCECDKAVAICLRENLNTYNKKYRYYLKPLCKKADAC

B1: G08(LALA + YTE) human IgG1 (antibody, V domains shown)
VH: EVQLVESGGGVVQPGRSLRLSCAASGFTFSSYGMHWVRQAPGKGLEWVAVISYDGSNKYYADSVKGRFTISRDNSKNTLYLQMNSLRAEDTAVYYCARTNYDSGDAFDIWGQGTLVTVSS
VL: NFMLTQPHSVSESPGKTVTISCTRSSGSIASNYVQWYQQRPGSSPTTVIYEDNQRPSGVPDRFSGSIDSSSNSASLTISGLKTEDEADYYCQSYDSSTVVFGGGTKLTVL
[1]
  Kd: 9.41 nM
[2]
  koff: 0.00283 s⁻¹

From article PMC10791742 (2024)
